According to PMC2770664:
Like-named read-outs stand apart in the source and are kept apart here.

T1: HMO2 (NHP10) (Saccharomyces cerevisiae, UniProt Q03435 1-203)
T1 sequence: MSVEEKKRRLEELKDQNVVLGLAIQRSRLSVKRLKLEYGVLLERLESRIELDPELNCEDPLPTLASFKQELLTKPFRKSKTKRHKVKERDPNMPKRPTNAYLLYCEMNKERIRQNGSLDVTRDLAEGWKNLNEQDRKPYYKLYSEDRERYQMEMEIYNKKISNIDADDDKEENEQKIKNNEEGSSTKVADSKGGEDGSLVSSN


Assays:
HMO2 (NHP10) [1] = molecular target: T1, HMO2 (NHP10); assay: EMSA
HMO2 (NHP10) [2] = molecular target: T1, HMO2 (NHP10); assay: EMSA; remark: listed apart in the source

Binder | binding result (HMO2 (NHP10) [1]) | binding result (HMO2 (NHP10) [2])
50 bp duplex with tandem AA and CT loops (dsDNA) DNA 1: ACAGTGGAGTAGGCTACACCTACTCTTTGTAAGAATTTTGCAAAAAGTAC DNA 2: GTACTTTTTGCAAAATTCAAACAAAGAGTTCGTGTAGCCTACTCCACTGT | binds | –
50 bp duplex (dsDNA) DNA 1: TTCAATCCCCGTCTGTCCCCCGATCCCCTGCTCGTAGGCGTGCTTGACCG DNA 2: CGGTCAAGCACGCCTACGAGCAGGGGATCGGGGGACAGACGGGGATTGAA | – | no binding
